Like-named read-outs stand apart in the source and are kept apart here. Ends that are not written are not given here.

Holding throughout (assay): cell-based or functional assay
For assay [1], the target named is human Kv1.3 channel (human) (UniProt P22001).
The target in assay [2] is human Kv1.3 voltage-gated potassium channel (human) (UniProt P22001).
The target of assay [3] is human Kv1.1 channel (human) (UniProt Q09470).
Assay [4] concerns the target human Kv1.1 voltage-gated potassium channel (human) (UniProt Q09470).
Assay [5] has as its target human Kv1.3 channel (human) (UniProt P22001). The source holds these as a separate data set.

human Kv1.3 channel (human), sequence (P22001 whole entry): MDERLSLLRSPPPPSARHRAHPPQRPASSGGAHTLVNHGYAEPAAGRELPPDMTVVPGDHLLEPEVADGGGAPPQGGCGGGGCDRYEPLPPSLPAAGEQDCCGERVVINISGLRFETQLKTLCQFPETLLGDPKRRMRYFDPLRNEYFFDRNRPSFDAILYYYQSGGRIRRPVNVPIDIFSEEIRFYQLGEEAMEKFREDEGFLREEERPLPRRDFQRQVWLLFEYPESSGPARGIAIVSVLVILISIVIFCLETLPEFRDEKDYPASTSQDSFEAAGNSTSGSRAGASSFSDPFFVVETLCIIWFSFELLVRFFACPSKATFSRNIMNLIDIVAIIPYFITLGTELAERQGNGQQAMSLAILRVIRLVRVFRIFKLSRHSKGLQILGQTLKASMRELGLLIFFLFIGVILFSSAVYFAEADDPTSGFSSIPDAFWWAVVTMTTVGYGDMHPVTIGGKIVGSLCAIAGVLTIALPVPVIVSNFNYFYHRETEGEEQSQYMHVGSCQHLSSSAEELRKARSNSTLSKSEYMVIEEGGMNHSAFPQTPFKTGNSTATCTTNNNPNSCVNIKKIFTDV
human Kv1.3 voltage-gated potassium channel (human), sequence (P22001 whole entry): as above
human Kv1.1 channel (human), sequence (Q09470 whole entry): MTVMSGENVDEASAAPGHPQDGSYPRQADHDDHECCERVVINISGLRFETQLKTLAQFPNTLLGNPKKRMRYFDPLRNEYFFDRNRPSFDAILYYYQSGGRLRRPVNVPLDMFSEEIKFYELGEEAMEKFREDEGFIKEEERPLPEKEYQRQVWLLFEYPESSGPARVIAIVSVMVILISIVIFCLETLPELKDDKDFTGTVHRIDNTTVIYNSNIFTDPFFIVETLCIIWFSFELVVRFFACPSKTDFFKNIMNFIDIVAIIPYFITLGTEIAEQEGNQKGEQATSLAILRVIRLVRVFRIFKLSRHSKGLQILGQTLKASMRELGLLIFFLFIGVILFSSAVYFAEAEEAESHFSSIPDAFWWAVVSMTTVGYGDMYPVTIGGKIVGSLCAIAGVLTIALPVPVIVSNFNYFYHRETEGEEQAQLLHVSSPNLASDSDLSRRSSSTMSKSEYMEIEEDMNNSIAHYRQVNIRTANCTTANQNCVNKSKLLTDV
human Kv1.1 voltage-gated potassium channel (human), sequence (Q09470 whole entry): as above

In assay [1], “E. coli-derived Fc-L-ShK[2-35] (Fc fusion)” came in with a Kv1.3 IC50 by IWQ (nM), IonWorks planar patch clamp, CHO/Kv1.3 cells of 2.8 nM and a Kv1.3 IC50 by WCVC (nM), whole cell patch clamp, HEK293/Kv1.3 cells of 1.3 nM.
Regarding “Fc-L10-OSK1 (stably expressed in CHO cells) (Fc fusion)”, the fold loss of potency (IC50 of Kv1.3 current block) against synthetic OSK1 in assay [1] amounted to 5 fold.
Turning to 20k PEG-OSK1[Ala29, 1Nal34] (peptide), in assay [2], the WB/IFNg (IC50, nM); human whole blood came out at 0.081 nM and the WB/IL-2 (IC50, nM); human whole blood was found to be 0.049 nM.
For 20k PEG-ShK (peptide) the same measures were 0.065 nM and 0.046 nM.
“E. coli-derived Fc-L-ShK[1-35] (Fc fusion)” registered a Kv1.3 IC50 by WCVC (nM), whole cell patch clamp, HEK293/Kv1.3 cells in assay [1] of 1.4 nM.
On to Synthetic OSK1 (peptide), for which the hKv1.1: IC50 [pM], block of current, whole cell patch clamp in assay [3] was found to be 160 pM. Besides, in assay [1], the hKv1.3: IC50 [pM], block of current, whole cell patch clamp stood at 39 pM and the selectivity ratio hKv1.1/hKv1.3 (IC50) turned out to be 4 fold.
On to Fc-L10-OSK1 (Fc fusion), for which the hKv1.1: IC50 [pM], block of current, whole cell patch clamp in assay [3] was found to be 41600 pM.
In the case of “PEG-OSK1 (N-terminally 20 kDa PEGylated synthetic OSK1) (peptide)”, the peak IC50 of block of the outward potassium current, whole cell patch clamp in assay [1] is 1.28 nM.
In assay [2], GGGGS-Osk1 (peptide) gave a WB/IFNg (IC50, nM); human whole blood of 2.2 nM and a WB/IL-2 (IC50, nM); human whole blood of 1.36 nM.
On to “Fc-L5-ShK[2-35] (CHO-derived, bivalent dimeric) (Fc fusion)”, for which, in assay [1], the IC50 of block of the outward potassium current, whole cell patch clamp is 100 pM.
“OSK1 (wild-type), toxin peptide of Orthochirus scrobiculosus scorpion venom” returned a Kv1.1 (IC50, pM); whole cell patch clamp ePhys in assay [4] of 202 pM. In assay [2], this molecule showed a Kv1.3 (IC50, pM); whole cell patch clamp ePhys of 39 pM and a Kv1.3 Selectivity (=Kv1.1/Kv.3 IC50) of 5 fold.
With “Fc-L10-ShK[2-35] (CHO-derived, bivalent dimeric) (Fc fusion)”, in assay [1], the IC50 of block of the outward potassium current, whole cell patch clamp amounted to 115 pM.
Regarding “E. coli-derived ShK[2-35]-L-Fc (Fc fusion)”, in assay [1], the Kv1.3 IC50 by IWQ (nM), IonWorks planar patch clamp, CHO/Kv1.3 cells is 4.9 nM.
“Fc-L25-ShK[2-35] (CHO-derived, bivalent dimeric) (Fc fusion)” registered an IC50 of inhibition of human Kv1.3, whole cell patch clamp in assay [1] of 150 pM.
For the molecule “E. coli-derived Shk[1-35]-L-Fc (Fc fusion)”, the Kv1.3 IC50 by IWQ (nM), IonWorks planar patch clamp, CHO/Kv1.3 cells in assay [1] turned out to be 2.4 nM.
In assay [1], E. coli-derived Fc-L-OSK1 (Fc fusion) registered a Kv1.3 IC50 by WCVC (nM), whole cell patch clamp, HEK293/Kv1.3 cells of 3.2 nM.
In assay [2], OSK1-K16, D20 (peptide) had a WB/IFNg (IC50, nM); human whole blood of 1.32 nM and a WB/IL-2 (IC50, nM); human whole blood of 1.58 nM.
SCIDTIPKSRCTAFQCKHSMKYRLSFCRKTCGTC (not fully specified; ends and bridges not checked) [synthetic ShK[2-35]]: the IC50 of block of the outward potassium current, whole cell patch clamp in assay [5] stood at 49 pM.
On to RSCIDTIPKSRCTAFQCKHSMKYRLSFCRKTCGTC (not fully specified; ends and bridges not checked) [20K PEG-ShK[1-35]], for which the peak IC50 of block of the outward potassium current, whole cell patch clamp in assay [5] was 0.169 nM.

The values above are taken from patent publication US20090281028A1.
